Results: ChEMBL document CHEMBL2074368, “Kinetic analysis of calcein and calcein-acetoxymethylester efflux mediated by the multidrug resistance protein and P-glycoprotein” (Biochemistry, 1998)

System: CC(=O)OCOC(=O)CN(CC(=O)OCOC(C)=O)Cc1c(OC(C)=O)ccc2c1Oc1c(ccc(OC(C)=O)c1CN(CC(=O)OCOC(C)=O)CC(=O)OCOC(C)=O)C21OC(=O)c2ccccc21
Experiment: TP_TRANSPORTER: efflux in K562/ADR cells
Format: functional, cell-based

ATP-dependent translocase ABCB1 (Homo sapiens)
Km: 0.12 µM
